For one experiment, the target named is HLA-A*30:01. Kind of experiment: IEDB peptide-MHC binding, purified MHC/competitive/fluorescence; filed as Kd, often an IC50 or EC50 that approximates it; ≥ and ≤ were set here for values at or beyond the usual limits of such assays. The conditions noted are these: source organism: Mycobacterium tuberculosis CDC1551.
The target of experiment [1] is HLA-A*02:01. The description is as above. The conditions noted are these: source organism: Mycobacterium tuberculosis CDC1551.
In experiment [2] the target is HLA-B*08:01. The description is as above. The note with it: source organism: Mycobacterium tuberculosis CDC1551.
For experiment [3], the target named is HLA-A*02:06. The experiment is described as above. The conditions noted are these: source organism: Mycobacterium tuberculosis CDC1551.
The target in the next experiment is HLA-A*03:01. Kind of experiment: IEDB peptide-MHC binding, purified MHC/direct/fluorescence; filed as Kd, often an IC50 or EC50 that approximates it; ≥ and ≤ were set here for values at or beyond the usual limits of such assays.
The target of another experiment is HLA-B*57:01. The description is as above. The note with it: source organism: Mycobacterium tuberculosis.
For the next experiment, the target named is HLA-B*07:02. The experiment is described as above.
The target of another experiment is HLA-B*08:02. The experiment is described as above. The conditions noted are these: source organism: Mycobacterium tuberculosis CDC1551.
A further experiment has as its target HLA-B*51:01. The description is as above. The note with it: source organism: Mycobacterium tuberculosis.
Another experiment addresses HLA-B*15:17. The experiment is described as above. The note with it: source organism: Mycobacterium tuberculosis.
For a further experiment, the target named is HLA-B*58:01. Described as above.
A further experiment deals with HLA-B*15:01. Described as above.
A further experiment addresses HLA-A*69:01. The description is as above.
For a further experiment, the target named is HLA-B*18:01. Described as above. The conditions noted are these: source organism: Mycobacterium tuberculosis.
The target in another experiment is HLA-A*31:01. Described as above.
Another experiment deals with HLA-B*46:01. The description is as above. The note with it: source organism: Mycobacterium tuberculosis.
The target of the next experiment is HLA-A*01:01. The experiment is described as above.
A further experiment has as its target HLA-B*27:05. The experiment is described as above.
Another experiment deals with HLA-B*40:01. The experiment is described as above.
The next experiment addresses HLA-A*11:01. The description is as above.
The target of another experiment is HLA-B*48:01. The experiment is described as above. The conditions noted are these: source organism: Mycobacterium tuberculosis.
The next experiment has as its target HLA-B*15:09. The experiment is described as above. The conditions noted are these: source organism: Mycobacterium tuberculosis CDC1551.
For the next experiment, the target named is HLA-A*02:17. Kind of experiment: IEDB peptide-MHC binding, purified MHC/competitive/radioactivity; filed as Kd, often an IC50 or EC50 that approximates it; ≥ and ≤ were set here for values at or beyond the usual limits of such assays.
The target in experiment [4] is HLA-A*02:01. The description is as above.
Another experiment addresses HLA-A*02:03. The description is as above.
Experiment [5] concerns the target HLA-A*02:06. The experiment is described as above.
The next experiment has as its target HLA-A*02:11. Kind of experiment: IEDB peptide-MHC binding, purified MHC/competitive/fluorescence; filed as Kd, often an IC50 or EC50 that approximates it; ≥ and ≤ were set here for values at or beyond the usual limits of such assays. The note with it: source organism: Pseudomonas putida F1.
A further experiment addresses HLA-A*24:03. Kind of experiment: IEDB peptide-MHC binding, purified MHC/direct/fluorescence; filed as Kd, often an IC50 or EC50 that approximates it; ≥ and ≤ were set here for values at or beyond the usual limits of such assays. The conditions noted are these: source organism: Pseudomonas putida.
A further experiment concerns the target HLA-A*26:01. Described as above. The note with it: source organism: Pseudomonas putida.
Experiment [6] deals with HLA-A*02:01. The experiment is described as above. The note with it: source organism: Pseudomonas putida.
The target in experiment [7] is HLA-B*08:01. The description is as above. The note with it: source organism: Pseudomonas putida.
In experiment [8] the target is HLA-B*08:01. Kind of experiment: IEDB peptide-MHC binding, purified MHC/competitive/radioactivity; filed as Kd, often an IC50 or EC50 that approximates it; ≥ and ≤ were set here for values at or beyond the usual limits of such assays. The note with it: source organism: Dengue virus 1 Brazil/97-11/1997.
[9] abbreviates: source organism: Mycobacterium tuberculosis.
Where [10] appears, read: source organism: Dengue virus 4 Philippines/H241/1956.
[11] abbreviates: source organism: Pseudomonas putida.
The mark [12] stands for this setting: source organism: Dengue virus 1 Singapore/S275/1990.
Setting [13] is: source organism: Dengue virus 2 Jamaica/1409/1983.

For orientation: Kd means the free concentration of one partner at which half of the binding sites on the other are occupied at equilibrium, for simple one-to-one binding.

Take ALRSRWRAL: the Kd with HLA-A*30:01 was 132 nM; with HLA-A*02:01 [1] it was no less than 20 µM; with HLA-B*08:01 [2], 14 nM; with HLA-A*02:06 [3], 556 nM; in the experiment with HLA-A*03:01 (setting [9]) it was no less than 20 µM; with HLA-B*57:01, no less than 20 µM. Moreover, the Kd with HLA-B*07:02 (setting [9]) is 59.5 nM; with HLA-B*08:02 it was no less than 20 µM; with HLA-B*51:01 it was no less than 20 µM; with HLA-B*15:17, no less than 20 µM; with HLA-B*58:01 (setting [9]), no less than 20 µM; with HLA-B*15:01 (setting [9]), 504 nM. In addition, the Kd with HLA-A*69:01 (setting [9]) is no less than 20000 nM; in the experiment with HLA-B*18:01, no less than 20 µM; with HLA-A*31:01 (setting [9]), no less than 20000 nM; in the experiment with HLA-B*46:01, no less than 20 µM; with HLA-A*01:01 (setting [9]), no less than 20 µM; with HLA-B*27:05 (setting [9]), no less than 20 µM. The Kd with HLA-B*40:01 (setting [9]), with HLA-A*11:01 (setting [9]), with HLA-B*48:01 and in the experiment with HLA-B*15:09 was no less than 20 µM throughout.

In the case of GLYPLAIPV, the Kd in the experiment with HLA-A*02:17 (setting [10]) worked out at 53.8 nM; in the experiment with HLA-A*02:01 [4] (setting [10]), 1.06 nM; with HLA-A*02:03 (setting [10]), 0.42 nM; in the experiment with HLA-A*02:06 [5] (setting [10]), 125 nM.

Turning to VMTEGRHAV, the Kd with HLA-A*02:11 was no more than 1 nM; with HLA-A*24:03 it was no less than 20 µM; in the experiment with HLA-A*26:01, no less than 20 µM; with HLA-A*03:01 (setting [11]) it was no less than 20 µM; with HLA-B*07:02 (setting [11]) it was 330 nM; with HLA-A*02:01 [6], 409 nM. The equilibrium dissociation constant (Kd) in the experiment with HLA-B*58:01 (setting [11]) is no less than 20 µM; in the experiment with HLA-B*15:01 (setting [11]), 3700 nM; with HLA-A*69:01 (setting [11]), 712 nM; in the experiment with HLA-A*31:01 (setting [11]) it was 991 nM; with HLA-A*01:01 (setting [11]), no less than 20 µM; with HLA-B*27:05 (setting [11]), no less than 20 µM. Besides, the Kd was no less than 20 µM with HLA-B*40:01 (setting [11]), no less than 20 µM with HLA-A*11:01 (setting [11]) and 7.12 µM in the experiment with HLA-B*08:01 [7].

Regarding RLITANPIV, the dissociation constant Kd came out at 121 nM in the experiment with HLA-A*02:17 (setting [12]) and 61.3 nM with HLA-A*02:01 [4] (setting [12]).

Consider KLAEAIFKL, for which the Kd was found to be 19.1 nM with HLA-A*02:17 (setting [13]), 8.68 nM with HLA-A*02:03 (setting [13]) and 14.8 nM with HLA-A*02:06 [5] (setting [13]).

Take RLLTKPWDV: the Kd amounted to 1430 nM with HLA-A*02:17 (setting [13]) and 27.6 nM in the experiment with HLA-A*02:01 [4] (setting [13]).

For the sequence ILLMLVTPSM, the dissociation constant (Kd) with HLA-A*02:17 (setting [12]) was determined as 1110 nM; with HLA-A*02:01 [4] (setting [12]) it was 102 nM; with HLA-B*08:01 [8], 160 nM.

Take DLMEFIDGI: the results for the dissociation constant Kd in the experiment with HLA-A*02:17 (setting [10]) and with HLA-A*02:01 [4] (setting [10]) were 1970 nM and 74.2 nM, respectively.
